Assay results: the RNAGym collection of RNA variant scans (doi:10.1073/pnas.2313332121)

B1: TPR t1 (parent)
chain: GACCAAUCUGCCCUCAGAGCUCGAGAACAUCUUCGGAUGCAGAGGAGGCAGGCUUCGGUGGCGCGAUAGCGCCAACGUCCUCAACCUCCAAUGCAUCCCACCACAUGAUGAUGCCUGAAGAGCCUUGGUUUUUUG

Variants of: B1
Experiment: polymerase ribozyme fitness, log enrichment relative to wild type (log ratio); higher = more active; in vitro selection for triplet polymerase activity
Procedure, shortened: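 In triplicate, a single round of in vitro selection was run on each mutant library, PCR-built and transcribed, covering one subunit of a heterodimeric triplet polymerase ribozyme. Frozen incubation at −7 °C followed annealing with a biotinylated primer, partner subunit and triplets, and extended constructs were then gel-excised, streptavidin-captured and taken through RT-PCR. Fitness is the logarithm of genotype enrichment over wild-type enrichment, from inverse-variance-weighted replicate averages of Illumina-sequenced inputs and outputs. […] only genotypes with ≥10 input reads and ≥1 read per output were kept.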

Variant	polymerase ribozyme fitness (log ratio)
G10A G44U U92G C115A	-3.73
G25C G120A	-5.07
U54C G69A U112C	-0.483
A29G U112A	0.263
U87G U96A C102A	-2.66
C12U C62U	0.166
C20A G45A G113U	-0.291
C12U A50U C115U	-3.47
C88A U129G	-1.51
C22G A118G A121U	-1.54
A37U G48C A121C	0.912
C20A C28A G45U A84U C104A G107U C124U	-5.96
C8G C62U C115U	-0.929
G10A G48C C64A G113A A119G C124G	-6.38
C40G C70U	-1.65
G17U G44U C49G	-5.1
A2U G19U C70U A121G	-4.27
C12U A41G G48A G57A C86U	-2.63
U21C G45A U59A G61A	-1.1
C31G C114A	-6.73
G47A C62A C70A	-4.43

Variant	polymerase ribozyme fitness (log ratio)
G44A G51A C76A U92A G117C	-6.37
A24G U55A U130A	-1.66
C62U G63U U78G	-3.96
U21A C34A A37G C98G	-2.68
G120C U130G	0.395
A6C G120A	0.157
U38G A50G U81C G113A	-1.89
C4U G113A	-1.15
C8G C15A G63C	-0.139
A83C G113C	-2.78
A43U C72A	-1.26
C49U A95U U130G	-1.71
A18U G19A G39U C115G	-3
C101U U126G	-2.48
C11U U87G C102U	-1.67
C79G G110A	-3.53
G51U U130A	-3.79
C62G C102U G120U	-5.14
G45U G63C C104U	-0.927
G113U C123U	-3.05
A27U C40G G57U U112A	-3

Variant	polymerase ribozyme fitness (log ratio)
C13U G45A G60C	-0.761
A18U U129G	-3.92
G69C U112A	-0.545
C13U G128A	-1.67
C3U C20A	-2.93
U81C A83G	-1.15
A18U G52U U133A	-3.89
U14A C15A C20U U55G	-3.71
C70G A100U C115A G120U	-2.99
C20A C49U	-3.79
G69U U87C	0.421
A2U C53G C56U G69U	-1.92
C70U G135A	-1.42
G77C G120C	0.526
C12G C98U	-0.616
C56A U109C	-3.16
G61C A119G	-0.986
C22G A46G C82A A121G G135U	-2.94
C11A U38G G48C C115G G122U	-2.9
U112A A119C	-1.25
A5C G69U A90U	-0.485

Variant	polymerase ribozyme fitness (log ratio)
A2C G39U A41C C56G C101A C123G	-4.81
C11U A83C G93A G120A U131C	0.209
U55G A121C G135U	1.07
C12G U116A	-3.29
G42U U81C C85G U126G	-6.41
G17C C56U C89U	-3.95
A74C C124U	1.08
A90G U112G U116C	-0.0889
C73A U92C	-0.541
C8G C79U U96A U130C U133G	-0.147
G17C A43G C101A C104A U106A U112G U126C	-6.47
C49A C88U C94U C123U U132G G135U	-1.38
A6U A50G G117A	-1.14
G61C C82U G117A	-2.78
C76A C82U A95G C104G G120C	-5.79
G10C C49G U55G C94A	-3.2
C11A U21C U112G	-0.593
A66G G71A A83C C88U U106A U130G	-3.75
C22A U67C C80A U96A U109A	-6.8
U32C C72G	-0.273
